{"source": "the RNAGym collection of RNA variant scans (doi:10.7554/elife.80360)", "parents": {"B1": {"name": "CPEB3 Ribozyme (parent)", "chain": "GGGGGCCACAGCAGAAGCGUUCACGUCGCGGCCCCUGUCAGAUUCUGGUGAAUCUGCGAAUUCUGCUGU"}}}
{"variants_of": "B1", "assay": "self-cleavage, relative activity (ratio to wild type); higher = more cleavage; co-transcriptional"}
{"variant": "U61A C66G", "self-cleavage": 0.44}
{"variant": "U61A C66A", "self-cleavage": 0.386}
{"variant": "U61C C63U", "self-cleavage": 0.425}
{"variant": "U61C C63A", "self-cleavage": 0.651}
{"variant": "C63A U69A", "self-cleavage": 0.949}
{"variant": "C63A U69G", "self-cleavage": 0.991}
{"variant": "C63A U69C", "self-cleavage": 1.07}
{"variant": "U62A G65A", "self-cleavage": 0.546}
{"variant": "U62G G68U", "self-cleavage": 0.683}
{"variant": "U62G G68A", "self-cleavage": 0.894}
{"variant": "A60U G65U", "self-cleavage": 0.43}
{"variant": "U64G C66G", "self-cleavage": 0.442}
{"variant": "U64G C66U", "self-cleavage": 0.558}
{"variant": "C63A G68A", "self-cleavage": 0.964}
{"variant": "C63A G68U", "self-cleavage": 0.878}
{"variant": "C63A G68C", "self-cleavage": 0.931}
{"variant": "U62G G65A", "self-cleavage": 0.285}
{"variant": "U62G G65C", "self-cleavage": 0.475}
{"variant": "A60U U62A", "self-cleavage": 0.551}
{"variant": "A60U U62C", "self-cleavage": 0.492}
{"variant": "U61C C66A", "self-cleavage": 0.375}
{"variant": "U61C C66G", "self-cleavage": 0.396}
{"variant": "U61C C66U", "self-cleavage": 0.557}
{"variant": "U62C U67C", "self-cleavage": 0.687}
{"variant": "U62C U67G", "self-cleavage": 0.865}
{"variant": "U62C U67A", "self-cleavage": 0.738}
{"variant": "U61C U67C", "self-cleavage": 0.764}
{"variant": "U61C U67A", "self-cleavage": 0.741}
{"variant": "U64A G65A", "self-cleavage": 0.701}
{"variant": "A60U U61C", "self-cleavage": 0.629}
{"variant": "A60U U61G", "self-cleavage": 0.556}
{"variant": "U62A U64C", "self-cleavage": 0.61}
{"variant": "U62A U64A", "self-cleavage": 0.452}
{"variant": "U61A U62C", "self-cleavage": 0.829}
{"variant": "U61A U62G", "self-cleavage": 0.646}
{"variant": "U61G C63U", "self-cleavage": 0.57}
{"variant": "U61G C63G", "self-cleavage": 0.396}
{"variant": "U61G C63A", "self-cleavage": 0.673}
{"variant": "U62A U69A", "self-cleavage": 0.942}
{"variant": "U62A U69G", "self-cleavage": 1}
{"variant": "U61G C66G", "self-cleavage": 0.538}
{"variant": "U61G C66A", "self-cleavage": 0.495}
{"variant": "U61A G68U", "self-cleavage": 0.937}
{"variant": "U61A G68C", "self-cleavage": 0.947}
{"variant": "C63U C66U", "self-cleavage": 0.863}
{"variant": "C63U C66A", "self-cleavage": 0.473}
{"variant": "U62C U69C", "self-cleavage": 1.03}
{"variant": "U62C U69A", "self-cleavage": 1.01}
{"variant": "U62C U69G", "self-cleavage": 0.984}
{"variant": "C63A G65U", "self-cleavage": 0.789}
{"variant": "C63A G65A", "self-cleavage": 0.509}
{"variant": "U62A C66G", "self-cleavage": 0.458}
{"variant": "U62A C66A", "self-cleavage": 0.499}
{"variant": "U64A C66A", "self-cleavage": 0.502}
{"variant": "U64A C66U", "self-cleavage": 0.668}
{"variant": "U64A C66G", "self-cleavage": 0.417}
{"variant": "C63G G65C", "self-cleavage": 0.366}
{"variant": "C63G U64G", "self-cleavage": 0.471}
{"variant": "U61C G65U", "self-cleavage": 0.292}
{"variant": "U61C G65C", "self-cleavage": 0.339}
{"variant": "U62C U64A", "self-cleavage": 0.507}
{"variant": "U62C U64G", "self-cleavage": 0.489}
{"variant": "U62C U64C", "self-cleavage": 0.46}
{"variant": "U61G U67C", "self-cleavage": 0.708}
{"variant": "U61G U67A", "self-cleavage": 0.841}
{"variant": "C63G U69A", "self-cleavage": 0.864}
{"variant": "C63G U69C", "self-cleavage": 1.04}
{"variant": "U64C C66G", "self-cleavage": 0.555}
{"variant": "U64C C66U", "self-cleavage": 0.624}
{"variant": "U61G U69G", "self-cleavage": 0.999}
{"variant": "U61C G68A", "self-cleavage": 0.924}
{"variant": "U61C G68C", "self-cleavage": 0.978}
{"variant": "C63G U67G", "self-cleavage": 0.752}
{"variant": "C63G U67C", "self-cleavage": 0.569}
{"variant": "U62C C63U", "self-cleavage": 0.795}
{"variant": "U62C C63G", "self-cleavage": 0.545}
{"variant": "U64G G65A", "self-cleavage": 0.578}
{"variant": "U64G G65C", "self-cleavage": 0.679}
{"variant": "U61C U64C", "self-cleavage": 0.31}
{"variant": "U61C U64G", "self-cleavage": 0.474}
{"variant": "U61C U64A", "self-cleavage": 0.322}
{"variant": "U62G U67A", "self-cleavage": 0.764}
{"variant": "A60U U67A", "self-cleavage": 0.454}
{"variant": "A60U U67C", "self-cleavage": 0.471}
{"variant": "A60U U69G", "self-cleavage": 0.614}
{"variant": "A60U U69C", "self-cleavage": 0.754}
{"variant": "U62G U69A", "self-cleavage": 0.937}
{"variant": "U62G U69G", "self-cleavage": 1.01}
{"variant": "U62G U69C", "self-cleavage": 1.03}
{"variant": "U62A C63A", "self-cleavage": 0.822}
{"variant": "U62A C63G", "self-cleavage": 0.481}
{"variant": "U61A U69A", "self-cleavage": 0.958}
{"variant": "U62A G68C", "self-cleavage": 0.949}
{"variant": "U62A G68A", "self-cleavage": 0.924}
{"variant": "U62C G68A", "self-cleavage": 1}
{"variant": "U62C G68U", "self-cleavage": 0.934}
{"variant": "U62C G68C", "self-cleavage": 0.806}
{"variant": "U61C U62C", "self-cleavage": 0.479}
{"variant": "U64C G65C", "self-cleavage": 0.504}
{"variant": "U64C G65A", "self-cleavage": 0.565}
{"variant": "U61A C63U", "self-cleavage": 0.721}
{"variant": "U61A C63A", "self-cleavage": 0.729}
{"variant": "U62G U64G", "self-cleavage": 0.533}
{"variant": "U62A U67C", "self-cleavage": 0.908}
{"variant": "U62A U67A", "self-cleavage": 0.924}
{"variant": "U61G G65A", "self-cleavage": 0.672}
{"variant": "U61G G65U", "self-cleavage": 0.483}
{"variant": "U62A", "self-cleavage": 0.957}
{"variant": "U62C", "self-cleavage": 0.927}
{"variant": "U62G", "self-cleavage": 0.925}
{"variant": "U61G G68A", "self-cleavage": 0.988}
{"variant": "U61G G68C", "self-cleavage": 0.867}
{"variant": "U61G G68U", "self-cleavage": 0.826}
{"variant": "U64G G68A", "self-cleavage": 1}
{"variant": "U64G G68C", "self-cleavage": 0.799}
{"variant": "U64G G68U", "self-cleavage": 0.923}
{"variant": "U61A G65C", "self-cleavage": 0.542}
{"variant": "U61A G65A", "self-cleavage": 0.519}
{"variant": "U61A G65U", "self-cleavage": 0.459}
{"variant": "U64C U67C", "self-cleavage": 0.764}
{"variant": "U64C U67A", "self-cleavage": 0.864}
{"variant": "U61A U67G", "self-cleavage": 0.958}
{"variant": "U61A U67C", "self-cleavage": 0.896}
{"variant": "U61A U67A", "self-cleavage": 0.903}
{"variant": "C63G G68U", "self-cleavage": 0.584}
{"variant": "C63G G68A", "self-cleavage": 0.849}
{"variant": "U64C G68C", "self-cleavage": 0.911}
{"variant": "U64C G68A", "self-cleavage": 0.931}
{"variant": "U64A G68C", "self-cleavage": 0.913}
{"variant": "U64A G68U", "self-cleavage": 0.922}
{"variant": "U62C G65C", "self-cleavage": 0.488}
{"variant": "C63U U67C", "self-cleavage": 0.968}
{"variant": "C63U U67G", "self-cleavage": 0.985}
{"variant": "C63G C66G", "self-cleavage": 0.487}
{"variant": "C63G C66U", "self-cleavage": 0.387}
{"variant": "C63G C66A", "self-cleavage": 0.248}
{"variant": "A60U U64C", "self-cleavage": 0.445}
{"variant": "C63U G68A", "self-cleavage": 0.967}
{"variant": "U62G C63A", "self-cleavage": 0.856}
{"variant": "U62G C63U", "self-cleavage": 0.661}
{"variant": "U62G C63G", "self-cleavage": 0.334}
{"variant": "C63U U69G", "self-cleavage": 1.04}
{"variant": "C63U U69A", "self-cleavage": 1.02}
{"variant": "U61A", "self-cleavage": 0.96}
{"variant": "U61C", "self-cleavage": 0.88}
{"variant": "U61G", "self-cleavage": 0.935}
{"variant": "C63U U64G", "self-cleavage": 0.777}
{"variant": "U64G U69A", "self-cleavage": 0.97}
{"variant": "U61C U69C", "self-cleavage": 1.02}
{"variant": "U61C U69G", "self-cleavage": 0.974}
{"variant": "U62C C66A", "self-cleavage": 0.5}
{"variant": "U64C U69C", "self-cleavage": 1.07}
{"variant": "C63U", "self-cleavage": 0.991}
{"variant": "C63G", "self-cleavage": 0.87}
{"variant": "C63A", "self-cleavage": 0.919}
{"variant": "C63A U67G", "self-cleavage": 0.758}
{"variant": "C63A U67C", "self-cleavage": 0.651}
{"variant": "C63A U67A", "self-cleavage": 0.757}
{"variant": "U61A U64A", "self-cleavage": 0.54}
{"variant": "C63A U64A", "self-cleavage": 0.62}
{"variant": "C63A U64C", "self-cleavage": 0.639}
{"variant": "U62G C66U", "self-cleavage": 0.579}
{"variant": "U62G C66A", "self-cleavage": 0.376}
{"variant": "U61G U64G", "self-cleavage": 0.397}
{"variant": "U61G U64A", "self-cleavage": 0.555}
{"variant": "U64A U67G", "self-cleavage": 0.922}
{"variant": "U64A U67A", "self-cleavage": 0.895}
